What follows are sequences tested on Escherichia coli TOP10 (assay: shrunken log2 fold change of peptide-encoding DNA abundance (4.5 h post-induction vs induction); higher = less antimicrobial activity (less host growth inhibition)). Conditions: time post-induction: 4.5 h; library: site-saturation at positions 5, 18, 19, 20.
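Note: peptides expressed intracellularly from a pBAD plasmid library in pooled LB shake-flask culture, induced with 0.3% L-arabinose, DNA abundance read by NGS, three biological replicates, DESeq2 with apeglm shrinkage.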

| Sequence | shrunken log2 fold change |
| --- | --- |
| RRIRNRPPRLPRPRPRPWPFPRP | 0.0256 |
| RRIRNRPPRLPRPRPRPWRMPRP | 0.0039 |
| RRIRNRPPRLPRPRPRPWTVPRP | -0.0833 |
| RRIRNRPPRLPRPRPRPWWIPRP | -0.00145 |
| RRIRNRPPRLPRPRPRPWYDPRP | -0.0695 |
| RRIRNRPPRLPRPRPRPYEDPRP | -0.173 |
| RRIRNRPPRLPRPRPRPYEHPRP | -0.151 |
| RRIRNRPPRLPRPRPRPYFFPRP | -0.482 |
| RRIRNRPPRLPRPRPRPYFPPRP | -0.143 |
| RRIRNRPPRLPRPRPRPYIWPRP | -0.588 |
| RRIRNRPPRLPRPRPRPYKTPRP | -0.0391 |
| RRIRNRPPRLPRPRPRPYLEPRP | -0.00618 |
| RRIRNRPPRLPRPRPRPYMCPRP | -0.18 |
| RRIRNRPPRLPRPRPRPYMSPRP | -0.019 |
| RRIRNRPPRLPRPRPRPYNIPRP | -0.13 |
| RRIRNRPPRLPRPRPRPYPYPRP | -0.242 |
| RRIRNRPPRLPRPRPRPYREPRP | 0.0155 |
| RRIRNRPPRLPRPRPRPYRNPRP | -0.0239 |
| RRIRNRPPRLPRPRPRPYSVPRP | -0.0155 |
| RRIRNRPPRLPRPRPRPYTMPRP | -0.38 |
| RRIRNRPPRLPRPRPRPYVKPRP | -0.626 |
| RRIRNRPPRLPRPRPRPYVRPRP | -0.451 |
| RRIRNRPPRLPRPRPRPYWDPRP | -0.54 |
| RRIRNRPPRLPRPRPRPYWGPRP | 0.0237 |
| RRIRNRPPRLPRPRPRPYWVPRP | -0.134 |

| Sequence | shrunken log2 fold change |
| --- | --- |
| RRIRNRPPRLPRPRPRPYYKPRP | -1.46 |
| RRIRPRPPRLPRPRPRPAAMPRP | 0.302 |
| RRIRPRPPRLPRPRPRPAARPRP | 0.727 |
| RRIRPRPPRLPRPRPRPACYPRP | -0.199 |
| RRIRPRPPRLPRPRPRPADGPRP | 0.297 |
| RRIRPRPPRLPRPRPRPADWPRP | 0.434 |
| RRIRPRPPRLPRPRPRPAERPRP | 0.291 |
| RRIRPRPPRLPRPRPRPAEYPRP | -0.565 |
| RRIRPRPPRLPRPRPRPAGVPRP | 0.392 |
| RRIRPRPPRLPRPRPRPAHCPRP | 0.0637 |
| RRIRPRPPRLPRPRPRPAHQPRP | 0.387 |
| RRIRPRPPRLPRPRPRPAIHPRP | -0.196 |
| RRIRPRPPRLPRPRPRPAIQPRP | -0.00944 |
| RRIRPRPPRLPRPRPRPAMEPRP | 0.226 |
| RRIRPRPPRLPRPRPRPASHPRP | 0.0473 |
| RRIRPRPPRLPRPRPRPATQPRP | 0.133 |
| RRIRPRPPRLPRPRPRPAVRPRP | -0.246 |
| RRIRPRPPRLPRPRPRPAVSPRP | 0.171 |
| RRIRPRPPRLPRPRPRPAVVPRP | 0.197 |
| RRIRPRPPRLPRPRPRPAWMPRP | 0.372 |
| RRIRPRPPRLPRPRPRPAWNPRP | 0.396 |
| RRIRPRPPRLPRPRPRPAWWPRP | 0.259 |
| RRIRPRPPRLPRPRPRPAWYPRP | 0.0306 |
| RRIRPRPPRLPRPRPRPCAEPRP | 0.27 |
| RRIRPRPPRLPRPRPRPCCAPRP | 0.0786 |

| Sequence | shrunken log2 fold change |
| --- | --- |
| RRIRPRPPRLPRPRPRPCCCPRP | 0.368 |
| RRIRPRPPRLPRPRPRPCCEPRP | -0.116 |
| RRIRPRPPRLPRPRPRPCCYPRP | -0.47 |
| RRIRPRPPRLPRPRPRPCDIPRP | 0.024 |
| RRIRPRPPRLPRPRPRPCDQPRP | -0.758 |
| RRIRPRPPRLPRPRPRPCDSPRP | 0.301 |
| RRIRPRPPRLPRPRPRPCFFPRP | -0.0762 |
| RRIRPRPPRLPRPRPRPCFKPRP | -0.341 |
| RRIRPRPPRLPRPRPRPCHEPRP | -0.316 |
| RRIRPRPPRLPRPRPRPCIGPRP | 0.00708 |
| RRIRPRPPRLPRPRPRPCLEPRP | -0.0989 |
| RRIRPRPPRLPRPRPRPCLKPRP | -0.0625 |
| RRIRPRPPRLPRPRPRPCMVPRP | -0.423 |
| RRIRPRPPRLPRPRPRPCNEPRP | -0.16 |
| RRIRPRPPRLPRPRPRPCNTPRP | -0.333 |
| RRIRPRPPRLPRPRPRPCPDPRP | 0.0391 |
| RRIRPRPPRLPRPRPRPCPKPRP | -0.0283 |
| RRIRPRPPRLPRPRPRPCQLPRP | -0.659 |
| RRIRPRPPRLPRPRPRPCQVPRP | -0.132 |
| RRIRPRPPRLPRPRPRPCREPRP | -0.075 |
| RRIRPRPPRLPRPRPRPCRVPRP | -0.309 |
| RRIRPRPPRLPRPRPRPCTYPRP | -0.253 |
| RRIRPRPPRLPRPRPRPCWDPRP | -0.0457 |
| RRIRPRPPRLPRPRPRPDACPRP | 0.183 |
| RRIRPRPPRLPRPRPRPDAWPRP | 0.513 |

| Sequence | shrunken log2 fold change |
| --- | --- |
| RRIRPRPPRLPRPRPRPDCKPRP | -0.133 |
| RRIRPRPPRLPRPRPRPDDNPRP | -0.0275 |
| RRIRPRPPRLPRPRPRPDEVPRP | 0.188 |
| RRIRPRPPRLPRPRPRPDFKPRP | -0.464 |
| RRIRPRPPRLPRPRPRPDFSPRP | 0.0658 |
| RRIRPRPPRLPRPRPRPDFWPRP | 0.527 |
| RRIRPRPPRLPRPRPRPDGSPRP | -0.00717 |
| RRIRPRPPRLPRPRPRPDGYPRP | -0.246 |
| RRIRPRPPRLPRPRPRPDHRPRP | -0.0495 |
| RRIRPRPPRLPRPRPRPDKHPRP | -0.376 |
| RRIRPRPPRLPRPRPRPDKIPRP | -0.184 |
| RRIRPRPPRLPRPRPRPDKPPRP | -0.233 |
| RRIRPRPPRLPRPRPRPDLGPRP | 0.215 |
| RRIRPRPPRLPRPRPRPDMFPRP | 2.58 |
| RRIRPRPPRLPRPRPRPDMQPRP | -0.21 |
| RRIRPRPPRLPRPRPRPDPQPRP | -0.0397 |
| RRIRPRPPRLPRPRPRPDQHPRP | -0.0313 |
| RRIRPRPPRLPRPRPRPDQYPRP | -0.114 |
| RRIRPRPPRLPRPRPRPDRKPRP | -0.124 |
| RRIRPRPPRLPRPRPRPDRQPRP | 0.099 |
| RRIRPRPPRLPRPRPRPDRVPRP | 0.187 |
| RRIRPRPPRLPRPRPRPDVCPRP | -0.00807 |
| RRIRPRPPRLPRPRPRPDVEPRP | -0.0392 |
| RRIRPRPPRLPRPRPRPDVHPRP | -0.0196 |
| RRIRPRPPRLPRPRPRPDWQPRP | -0.0976 |

| Sequence | shrunken log2 fold change |
| --- | --- |
| RRIRPRPPRLPRPRPRPDYHPRP | -0.815 |
| RRIRPRPPRLPRPRPRPEDPPRP | 0.122 |
| RRIRPRPPRLPRPRPRPEEIPRP | -0.00277 |
| RRIRPRPPRLPRPRPRPEERPRP | -0.0232 |
| RRIRPRPPRLPRPRPRPEEVPRP | 0.0532 |
| RRIRPRPPRLPRPRPRPEFDPRP | 0.33 |
| RRIRPRPPRLPRPRPRPEFHPRP | -0.0272 |
| RRIRPRPPRLPRPRPRPEFKPRP | 0.26 |
| RRIRPRPPRLPRPRPRPEFYPRP | -0.173 |
| RRIRPRPPRLPRPRPRPEGEPRP | 0.302 |
| RRIRPRPPRLPRPRPRPEHLPRP | -0.109 |
| RRIRPRPPRLPRPRPRPEIKPRP | 0.0782 |
| RRIRPRPPRLPRPRPRPEIYPRP | 0.0694 |
| RRIRPRPPRLPRPRPRPEKLPRP | 0.226 |
| RRIRPRPPRLPRPRPRPEKQPRP | -0.0353 |
| RRIRPRPPRLPRPRPRPEKRPRP | 0.0688 |
| RRIRPRPPRLPRPRPRPENGPRP | -0.0225 |
| RRIRPRPPRLPRPRPRPEPFPRP | 0.454 |
| RRIRPRPPRLPRPRPRPEQSPRP | 0.289 |
| RRIRPRPPRLPRPRPRPESGPRP | 0.415 |
| RRIRPRPPRLPRPRPRPEVAPRP | 0.212 |
| RRIRPRPPRLPRPRPRPEWRPRP | 0.362 |
| RRIRPRPPRLPRPRPRPEYAPRP | 0.0857 |
| RRIRPRPPRLPRPRPRPEYHPRP | -0.0649 |
| RRIRPRPPRLPRPRPRPEYSPRP | -0.117 |

| Sequence | shrunken log2 fold change |
| --- | --- |
| RRIRPRPPRLPRPRPRPFANPRP | -0.0686 |
| RRIRPRPPRLPRPRPRPFCEPRP | 0.0972 |
| RRIRPRPPRLPRPRPRPFDDPRP | -0.189 |
| RRIRPRPPRLPRPRPRPFEIPRP | -0.0325 |
| RRIRPRPPRLPRPRPRPFEKPRP | 0.0465 |
| RRIRPRPPRLPRPRPRPFGGPRP | 0.0321 |
| RRIRPRPPRLPRPRPRPFHDPRP | 0.000303 |
| RRIRPRPPRLPRPRPRPFIAPRP | -0.342 |
| RRIRPRPPRLPRPRPRPFIMPRP | -0.426 |
| RRIRPRPPRLPRPRPRPFIYPRP | -0.0739 |
| RRIRPRPPRLPRPRPRPFKFPRP | -0.469 |
| RRIRPRPPRLPRPRPRPFLWPRP | 0.0275 |
| RRIRPRPPRLPRPRPRPFNGPRP | -0.014 |
| RRIRPRPPRLPRPRPRPFNIPRP | -0.293 |
| RRIRPRPPRLPRPRPRPFQDPRP | -0.0806 |
| RRIRPRPPRLPRPRPRPFQYPRP | -0.179 |
| RRIRPRPPRLPRPRPRPFVAPRP | -0.186 |
| RRIRPRPPRLPRPRPRPFVRPRP | -0.117 |
| RRIRPRPPRLPRPRPRPFVTPRP | -0.102 |
| RRIRPRPPRLPRPRPRPFWFPRP | -0.0717 |
| RRIRPRPPRLPRPRPRPFWSPRP | -0.143 |
| RRIRPRPPRLPRPRPRPGCGPRP | 0.514 |
| RRIRPRPPRLPRPRPRPGCHPRP | 0.332 |
| RRIRPRPPRLPRPRPRPGEFPRP | 0.318 |
| RRIRPRPPRLPRPRPRPGENPRP | 0.184 |
